The values below come from the supplement of paper PMC9112550, “Optimization of the antimicrobial peptide Bac7 by deep mutational scanning” (BMC Biology, 2022).
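Also: peptides expressed intracellularly from a pBAD plasmid library in pooled LB shake-flask culture, induced with 0.3% L-arabinose, DNA abundance read by NGS, three biological replicates, DESeq2 with apeglm shrinkage.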

In the data set the test system is Escherichia coli TOP10. Kind of data set: shrunken log2 fold change of peptide-encoding DNA abundance (4.5 h post-induction vs induction); higher = less antimicrobial activity (less host growth inhibition). Conditions: time post-induction: 4.5 h; library: site-saturation at positions 5, 18, 19, 20.
Regarding RRIRFRPPRLPRPRPRPEHYPRP, the “shrunken log2 fold change” value was -0.101.
For the sequence RRIRWRPPRLPRPRPRPDKMPRP, the “shrunken log2 fold change” value was -0.0535.
To RRIRARPPRLPRPRPRPKEWPRP belongs 1.16.
To RRIRGRPPRLPRPRPRPQSCPRP belongs 0.195; to RRIRDRPPRLPRPRPRPATRPRP, 0.701; to RRIRYRPPRLPRPRPRPEWGPRP, -0.169.
Turning to RRIRRRPPRLPRPRPRPWTKPRP, the “shrunken log2 fold change” value stood at 0.124.
To RRIRDRPPRLPRPRPRPMFFPRP belongs 0.125.
With RRIRVRPPRLPRPRPRPQQHPRP, the “shrunken log2 fold change” value was -0.0119.
For RRIRHRPPRLPRPRPRPCMWPRP, the “shrunken log2 fold change” value is -0.193.
To RRIRSRPPRLPRPRPRPVEVPRP belongs 0.233; to RRIRMRPPRLPRPRPRPLRVPRP, 1.14; to RRIRTRPPRLPRPRPRPYGSPRP, -0.154.
As to RRIRVRPPRLPRPRPRPGWDPRP, the “shrunken log2 fold change” value was determined as 0.243.
RRIRIRPPRLPRPRPRPDLSPRP: the “shrunken log2 fold change” value is -0.000521.
As to RRIRMRPPRLPRPRPRPLLPPRP, the “shrunken log2 fold change” value was 0.354.
With RRIRKRPPRLPRPRPRPVEGPRP the figure was -0.006.
With RRIRRRPPRLPRPRPRPVRQPRP the figure was 0.874; with RRIRCRPPRLPRPRPRPKNIPRP, -0.607; with RRIRCRPPRLPRPRPRPWACPRP, -0.0929.
To RRIRRRPPRLPRPRPRPGYHPRP belongs 0.456; to RRIRPRPPRLPRPRPRPESAPRP, 0.396.
As to RRIRARPPRLPRPRPRPHKWPRP, the “shrunken log2 fold change” value is 0.192.
On to RRIRHRPPRLPRPRPRPGAKPRP, for which the “shrunken log2 fold change” value is 0.219.
To RRIRWRPPRLPRPRPRPERIPRP belongs 0.0766; to RRIRKRPPRLPRPRPRPKWWPRP, 0.238.
Turning to RRIRLRPPRLPRPRPRPFIMPRP, the “shrunken log2 fold change” value is -0.79.
To RRIRWRPPRLPRPRPRPTISPRP belongs 0.21; to RRIRFRPPRLPRPRPRPRCNPRP, -0.0427; to RRIRYRPPRLPRPRPRPDRLPRP, -0.216.
With RRIRPRPPRLPRPRPRPKLMPRP the figure was 0.121.
Regarding RRIRLRPPRLPRPRPRPMCKPRP, the “shrunken log2 fold change” value turned out to be 0.0258.
With RRIRTRPPRLPRPRPRPRLHPRP the figure was 0.0546; with RRIRMRPPRLPRPRPRPVFAPRP, 0.378.
To RRIRIRPPRLPRPRPRPDPAPRP belongs 0.0747; to RRIRKRPPRLPRPRPRPSNYPRP, -0.312; to RRIRKRPPRLPRPRPRPTCGPRP, 0.561.
Take RRIRARPPRLPRPRPRPHDTPRP: the “shrunken log2 fold change” value was 0.111.
As for RRIRDRPPRLPRPRPRPKTIPRP, the “shrunken log2 fold change” value was -0.00641.
With RRIRVRPPRLPRPRPRPGDLPRP the figure was -0.211; with RRIRTRPPRLPRPRPRPVYDPRP, -0.156.
With RRIRRRPPRLPRPRPRPGMHPRP, the “shrunken log2 fold change” value amounted to 0.217.
To RRIRARPPRLPRPRPRPRMAPRP belongs 0.479.
To RRIRQRPPRLPRPRPRPGHGPRP belongs -0.124; to RRIRCRPPRLPRPRPRPLDPPRP, -0.122; to RRIRWRPPRLPRPRPRPISQPRP, -0.392.
To RRIRVRPPRLPRPRPRPLLPPRP belongs 0.328.
In the case of RRIRTRPPRLPRPRPRPLCIPRP, the “shrunken log2 fold change” value was -0.693.
RRIRQRPPRLPRPRPRPNADPRP: the “shrunken log2 fold change” value stood at 0.00101.
With RRIRNRPPRLPRPRPRPNIMPRP, the “shrunken log2 fold change” value was -0.599.
To RRIRWRPPRLPRPRPRPWMSPRP belongs -0.353.
To RRIRIRPPRLPRPRPRPCDKPRP belongs -0.0161; to RRIRPRPPRLPRPRPRPWITPRP, -0.469.
To RRIRRRPPRLPRPRPRPDMFPRP belongs 0.0219.
Consider RRIRPRPPRLPRPRPRPNGGPRP, for which the “shrunken log2 fold change” value was -0.305.
With RRIRGRPPRLPRPRPRPDRCPRP the figure was 0.286; with RRIRVRPPRLPRPRPRPNNIPRP, -0.937.
For RRIRVRPPRLPRPRPRPKHVPRP, the “shrunken log2 fold change” value was -0.101.
With RRIRHRPPRLPRPRPRPHKDPRP, the “shrunken log2 fold change” value is -0.384.
To RRIRDRPPRLPRPRPRPCTFPRP belongs -0.0767; to RRIRQRPPRLPRPRPRPFTWPRP, -0.398.
With RRIRIRPPRLPRPRPRPCSHPRP, the “shrunken log2 fold change” value was 0.0454.
With RRIRDRPPRLPRPRPRPDRKPRP, the “shrunken log2 fold change” value is -0.055.
To RRIRLRPPRLPRPRPRPRWHPRP belongs 0.199.
As for RRIRIRPPRLPRPRPRPCASPRP, the “shrunken log2 fold change” value is 0.02.
With RRIRIRPPRLPRPRPRPYGGPRP, the “shrunken log2 fold change” value amounted to 0.00177.
With RRIRYRPPRLPRPRPRPWIIPRP the figure was -0.384.
As for RRIRDRPPRLPRPRPRPRAWPRP, the “shrunken log2 fold change” value came out at 0.0227.
As to RRIRMRPPRLPRPRPRPNGGPRP, the “shrunken log2 fold change” value worked out at 0.112.
To RRIRTRPPRLPRPRPRPDKNPRP belongs -0.143; to RRIRHRPPRLPRPRPRPKNCPRP, 0.00397; to RRIRCRPPRLPRPRPRPMMRPRP, 0.0843.
Consider RRIRVRPPRLPRPRPRPEQFPRP, for which the “shrunken log2 fold change” value amounted to 0.0357.
For RRIRKRPPRLPRPRPRPCPKPRP, the “shrunken log2 fold change” value was 0.29.
For the sequence RRIRCRPPRLPRPRPRPKFWPRP, the “shrunken log2 fold change” value turned out to be 0.449.
For the sequence RRIRDRPPRLPRPRPRPYGSPRP, the “shrunken log2 fold change” value was -0.0409.
RRIRKRPPRLPRPRPRPTMCPRP: the “shrunken log2 fold change” value worked out at 0.00679.
With RRIRKRPPRLPRPRPRPMYFPRP the figure was -0.0354; with RRIRDRPPRLPRPRPRPLCRPRP, -0.0528.
With RRIRGRPPRLPRPRPRPQFIPRP the figure was 0.0876; with RRIRERPPRLPRPRPRPGQQPRP, -0.0809.
For RRIRARPPRLPRPRPRPNVRPRP, the “shrunken log2 fold change” value stood at 0.0345.
With RRIRYRPPRLPRPRPRPVLRPRP the figure was 0.124.
To RRIRSRPPRLPRPRPRPTYGPRP belongs -0.303; to RRIRVRPPRLPRPRPRPQVFPRP, -0.0729.
With RRIRDRPPRLPRPRPRPYIDPRP the figure was -0.0251; with RRIRYRPPRLPRPRPRPSQEPRP, -0.748; with RRIRYRPPRLPRPRPRPFLQPRP, -0.218.
For RRIRYRPPRLPRPRPRPFIQPRP, the “shrunken log2 fold change” value was -0.126.
With RRIRGRPPRLPRPRPRPERIPRP the figure was -0.0324; with RRIRPRPPRLPRPRPRPVIIPRP, -0.286.
